Read-outs that look alike come from different tables or passages of the source.
Key:
[1] = target: T1, varicella-zoster virus recombinant protein gH-His/gL (varicella-zoster virus strain Oka, UniProt Q775J3 18-795; Q9J3N1 23-160); assay: competition ELISA on coated gH/gL; competitor: phage S7A10 (same clone), bound phage detected with HRP-anti-M13
[2] = target: T2, gH/gL protein of varicella-zoster virus, native, on VZV (Oka) virions and VZV-infected MRC5 cells (varicella-zoster virus (Oka), UniProt Q775J3 18-841); assay: cell-based or functional assay
[3] = target: T2, gH/gL protein of varicella-zoster …; assay: cell-based or functional assay; remark: listed apart in the source
[4] = target: T1, varicella-zoster virus recombinant …; assay: competition ELISA on coated gH/gL, scFv phage at fixed concentration, anti-M13 detection
[5] = target: T1, varicella-zoster virus recombinant …; assay: solid-phase phage display screening on gH-His/gL
[6] = target: T2, gH/gL protein of varicella-zoster …; assay: cell-based or functional assay; remark: listed apart in the source
[7] = target: T2, gH/gL protein of varicella-zoster …; assay: cell-based or functional assay; remark: listed apart in the source
[8] = target: T1, varicella-zoster virus recombinant …; assay: competition ELISA on coated gH/gL; competitor: phage H4H8-L1B7 (same clone), bound phage detected with HRP-anti-M13
[9] = target: T1, varicella-zoster virus recombinant …; assay: competition ELISA on coated gH/gL; competitor: phage S8E1 (same clone), bound phage detected with HRP-anti-M13
[10] = target: T1, varicella-zoster virus recombinant …; assay: competition ELISA on coated gH/gL; competitor: phage S8B8 (same clone), bound phage detected with HRP-anti-M13

T1 sequence (Q775J3 18-795, tags left off, chain 1 of 2): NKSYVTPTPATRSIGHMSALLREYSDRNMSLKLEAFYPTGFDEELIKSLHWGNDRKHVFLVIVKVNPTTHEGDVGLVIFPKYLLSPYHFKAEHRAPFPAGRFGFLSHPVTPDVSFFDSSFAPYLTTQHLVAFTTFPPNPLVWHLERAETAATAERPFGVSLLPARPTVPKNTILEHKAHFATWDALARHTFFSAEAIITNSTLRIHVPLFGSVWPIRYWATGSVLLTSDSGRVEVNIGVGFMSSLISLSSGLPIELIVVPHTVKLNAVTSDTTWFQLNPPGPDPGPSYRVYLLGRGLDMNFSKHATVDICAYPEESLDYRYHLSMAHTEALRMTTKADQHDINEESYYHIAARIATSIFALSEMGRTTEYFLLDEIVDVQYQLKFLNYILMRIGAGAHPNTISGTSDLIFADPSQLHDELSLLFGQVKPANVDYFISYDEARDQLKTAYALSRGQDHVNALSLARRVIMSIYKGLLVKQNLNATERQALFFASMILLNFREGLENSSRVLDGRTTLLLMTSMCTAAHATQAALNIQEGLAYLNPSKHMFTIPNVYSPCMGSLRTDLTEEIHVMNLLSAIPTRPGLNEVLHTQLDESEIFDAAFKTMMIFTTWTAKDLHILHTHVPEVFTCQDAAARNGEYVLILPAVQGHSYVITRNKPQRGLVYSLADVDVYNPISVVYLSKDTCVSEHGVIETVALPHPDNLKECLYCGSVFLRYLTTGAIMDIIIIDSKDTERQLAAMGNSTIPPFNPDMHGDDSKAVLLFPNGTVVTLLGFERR
T1 sequence (Q9J3N1 23-160 limits assumed, chain 2 of 2): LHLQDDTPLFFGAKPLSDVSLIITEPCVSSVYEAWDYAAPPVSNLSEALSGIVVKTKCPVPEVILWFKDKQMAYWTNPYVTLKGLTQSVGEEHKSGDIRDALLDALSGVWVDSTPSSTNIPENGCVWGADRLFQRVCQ
T2 sequence (Q775J3 18-841): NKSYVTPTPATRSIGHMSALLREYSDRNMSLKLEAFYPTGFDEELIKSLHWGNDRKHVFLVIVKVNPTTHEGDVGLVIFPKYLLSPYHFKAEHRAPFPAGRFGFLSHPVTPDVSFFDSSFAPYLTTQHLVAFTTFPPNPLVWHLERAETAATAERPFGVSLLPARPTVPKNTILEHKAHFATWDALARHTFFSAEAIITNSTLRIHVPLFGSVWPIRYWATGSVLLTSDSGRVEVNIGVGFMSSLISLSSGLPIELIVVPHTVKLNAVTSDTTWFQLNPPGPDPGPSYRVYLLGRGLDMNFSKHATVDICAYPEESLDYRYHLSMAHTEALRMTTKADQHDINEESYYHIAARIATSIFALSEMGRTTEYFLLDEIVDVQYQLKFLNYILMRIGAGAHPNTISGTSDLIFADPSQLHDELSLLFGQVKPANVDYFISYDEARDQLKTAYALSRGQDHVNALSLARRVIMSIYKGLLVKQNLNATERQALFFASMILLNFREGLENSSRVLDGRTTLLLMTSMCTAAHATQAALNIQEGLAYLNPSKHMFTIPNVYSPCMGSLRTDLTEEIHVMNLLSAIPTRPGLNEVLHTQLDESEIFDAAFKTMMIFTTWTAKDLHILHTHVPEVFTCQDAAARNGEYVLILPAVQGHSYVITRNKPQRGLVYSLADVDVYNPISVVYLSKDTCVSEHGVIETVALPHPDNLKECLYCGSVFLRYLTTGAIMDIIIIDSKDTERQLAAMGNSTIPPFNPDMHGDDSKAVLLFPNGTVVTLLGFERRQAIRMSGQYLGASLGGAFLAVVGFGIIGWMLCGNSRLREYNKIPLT

B1: S7A10-IgG1 (antibody, V domains shown)
VH: QVQLKESGPGPVKPSQSLSLTCSVTGYSITSGNYWNWVRQFPGNKLEWMAYISYDGSTYYNPSLKNRISITRDTSKNQFFLKLNSVTTEDTATYYCAEGYYGYWFAYWGQGTLVTVSA
VL: ENVLTQSPAILSASPGEKVTMTCRASSSVSYMHWYQQKPGSSPKPWIYATSNLASGVPARFSGSGSGTSYSLTISRVEAEDAATYYCQQWSSNPFTFGSGTKLEIKR
notes: also called monoclonal antibody S7A10
IC50 (read off the curve) [1]: ~2 nM
PRNT50(µg/mL), plaque reduction, antibody added 24 h after infection of MRC5 cells (cell-to-cell transmission) [2]: 0.93 µg/mL
PRNT50 (µg/mL), plaque reduction neutralisation of VZV (Oka) on MRC5 cells [3]: 0.34 µg/mL

B2: single chain fragment variable S8B8 (phage-displayed) (scFv)
scFv: EVKLVESGGGLVQPGGSLKLSCAASGFTFSSYTMSWVRQTPEKRLEWVAFISNGGDNNYYADTVKGRFIISRDNAKNTLYLQMSSLKSEDTAMYYCARHNGNWGFAYWGQGTLVTVSAGGGGSGGGGSGGGGSQNVLTQSPTTMAASPGEKITITCSASSSISSNYLHWYQQKPGFSPKLLIYRTSNLASGVPARFSGSGSGTSYSLTIGTMEAEDVATYYCQQGSSIPLTFGAGTKLEIK
notes: also called clone S8B8; phage S8B8
binding result [4]: binds

B3: single chain fragment variable S8E1 (phage-displayed) (scFv)
scFv: EVKLVESGPGLVKPSQSLSLTCSVTGYSITSGYYWNWIRQFPGNKLEWMGYISYDGSNNYNTSLKNRISITRDTSKNQFFLKLNSVTTEDTATYYCAREDVNYPPYALDYWGQGTSVTVSSGGGGSGGGGSGGGGSSIVMTQTPLSLPVSLGDQASISCRSSQSLVHSNGNTYLHWYLQKPGQSPKLLIYKVSNRFSGVPDRFSGSGSGTDFTLKISRVEAEDLGVYFCSQSTHVPWTFGGGTKLEMK
notes: also called clone S8E1; phage S8E1
binding result [5]: binds

B4: H4H8-L13C7-IgG1 (antibody, V domains shown)
VH: EVQLVESGGGVVQPGRSLRLSCGASGFTFNTYAMHWVRQAPGKGMEWVAVISYGGGNRYYAASVKGRFTISRDNSKNTLFLQLNTLRPEDTAVYYCARARDNHYFFGMDVWGRGTTVTVSS
VL: DIQMTQSPSSVSASVGDRVTITCRASQGISSWLAWYQQKPGKAPKLLIYAASSLQSGVPSRFSGSGSGTDFTLTISSLQPEDFATYYCQQATYFPINFGGGTKVEIKR
PRNT50(µg/mL), plaque reduction, antibody added 24 h after infection of MRC5 cells (cell-to-cell transmission) [6]: > 2 µg/mL
PRNT50(µg/mL), plaque reduction neutralisation of VZV on MRC5 cells [7]: > 0.4 µg/mL

B5: H4H8-L13C1-IgG1 (antibody, V domains shown)
VH: EVQLVESGGGVVQPGRSLRLSCGASGFTFNTYAMHWVRQAPGKGMEWVAVISYGGGNRYYAASVKGRFTISRDNSKNTLFLQLNTLRPEDTAVYYCARARDNHYFFGMDVWGRGTTVTVSS
VL: DIQMTQSPSSVSASVGDRVTITCRASQGISSWLAWYQQKPGKAPKLLIYAASSLQSGVPSRFSGSGSGTDFTLTISSLQPEDFATYYCQEGFYFPINFGGGTKVEIKR
PRNT50(µg/mL), plaque reduction, antibody added 24 h after infection of MRC5 cells (cell-to-cell transmission) [6]: 0.28 µg/mL
PRNT50(µg/mL), plaque reduction neutralisation of VZV on MRC5 cells [7]: 0.016 µg/mL

B6: H4H8-L14H8-IgG1 (antibody, V domains shown)
VH: EVQLVESGGGVVQPGRSLRLSCGASGFTFNTYAMHWVRQAPGKGMEWVAVISYGGGNRYYAASVKGRFTISRDNSKNTLFLQLNTLRPEDTAVYYCARARDNHYFFGMDVWGRGTTVTVSS
VL: DIQMTQSPSSVSASVGDRVTITCRASQGISSWLAWYQQKPGKAPKLLIYAASSLQSGVPSRFSGSGSGTDFTLTISSLQPEDFATYYCQQSSYFPIAFGGGTKVEIKR
PRNT50(µg/mL), plaque reduction, antibody added 24 h after infection of MRC5 cells (cell-to-cell transmission) [6]: 0.31 µg/mL
PRNT50(µg/mL), plaque reduction neutralisation of VZV on MRC5 cells [7]: 0.016 µg/mL

B7: H4H8-L1B7-IgG1 (antibody, V domains shown)
VH: EVQLVESGGGVVQPGRSLRLSCGASGFTFNTYAMHWVRQAPGKGMEWVAVISYGGGNRYYAASVKGRFTISRDNSKNTLFLQLNTLRPEDTAVYYCARARDNHYFFGMDVWGRGTTVTVSS
VL: DIQMTQSPSSVSASVGDRVTITCRASQGISSWLAWYQQKPGKAPKLLIYAASSLQSGVPSRFSGSGSGTDFTLTISSLQPEDFATYYCQQANSFPLTFGGGTKVEIKR
notes: also called H4H8-LIB7-IgG1; monoclonal antibody H4H8-L1B7
IC50 (read off the curve) [8]: ~2 nM

B8: S8E1-IgG1 (antibody, V domains shown)
VH: EVKLVESGPGLVKPSQSLSLTCSVTGYSITSGYYWNWIRQFPGNKLEWMGYISYDGSNNYNTSLKNRISITRDTSKNQFFLKLNSVTTEDTATYYCAREDVNYPPYALDYWGQGTSVTVSS
VL: SIVMTQTPLSLPVSLGDQASISCRSSQSLVHSNGNTYLHWYLQKPGQSPKLLIYKVSNRFSGVPDRFSGSGSGTDFTLKISRVEAEDLGVYFCSQSTHVPWTFGGGTKLEMKR
notes: also called monoclonal antibody S8E1
PRNT50(µg/mL), plaque reduction, antibody added 24 h after infection of MRC5 cells (cell-to-cell transmission) [2]: 2.82 µg/mL
IC50 (read off the curve) [9]: ~0.5 nM
PRNT50 (µg/mL), plaque reduction neutralisation of VZV (Oka) on MRC5 cells [3]: 0.38 µg/mL

B9: single chain fragment variable S7A10 (phage-displayed) (scFv)
scFv: QVQLKESGPGPVKPSQSLSLTCSVTGYSITSGNYWNWVRQFPGNKLEWMAYISYDGSTYYNPSLKNRISITRDTSKNQFFLKLNSVTTEDTATYYCAEGYYGYWFAYWGQGTLVTVSAGGGGSGGGGSGGGGSENVLTQSPAILSASPGEKVTMTCRASSSVSYMHWYQQKPGSSPKPWIYATSNLASGVPARFSGSGSGTSYSLTISRVEAEDAATYYCQQWSSNPFTFGSGTKLEIK
notes: also called clone S7A10; phage S7A10
binding result [5]: binds

B10: S8B8-IgG1 (antibody, V domains shown)
VH: EVKLVESGGGLVQPGGSLKLSCAASGFTFSSYTMSWVRQTPEKRLEWVAFISNGGDNNYYADTVKGRFIISRDNAKNTLYLQMSSLKSEDTAMYYCARHNGNWGFAYWGQGTLVTVSA
VL: QNVLTQSPTTMAASPGEKITITCSASSSISSNYLHWYQQKPGFSPKLLIYRTSNLASGVPARFSGSGSGTSYSLTIGTMEAEDVATYYCQQGSSIPLTFGAGTKLEIKR
notes: also called monoclonal antibody S8B8
PRNT50(µg/mL), plaque reduction, antibody added 24 h after infection of MRC5 cells (cell-to-cell transmission) [2]: 3.21 µg/mL
PRNT50 (µg/mL), plaque reduction neutralisation of VZV (Oka) on MRC5 cells [3]: 0.38 µg/mL
IC50 (read off the curve) [10]: ~0.3 nM
